Results on one molecule are retold here after patent US20070219116A1 (TROPHOGEN, published 2007).

In one experiment the target is T1, human FSH receptor (human, UniProt P23945 18-695).
T1 sequence: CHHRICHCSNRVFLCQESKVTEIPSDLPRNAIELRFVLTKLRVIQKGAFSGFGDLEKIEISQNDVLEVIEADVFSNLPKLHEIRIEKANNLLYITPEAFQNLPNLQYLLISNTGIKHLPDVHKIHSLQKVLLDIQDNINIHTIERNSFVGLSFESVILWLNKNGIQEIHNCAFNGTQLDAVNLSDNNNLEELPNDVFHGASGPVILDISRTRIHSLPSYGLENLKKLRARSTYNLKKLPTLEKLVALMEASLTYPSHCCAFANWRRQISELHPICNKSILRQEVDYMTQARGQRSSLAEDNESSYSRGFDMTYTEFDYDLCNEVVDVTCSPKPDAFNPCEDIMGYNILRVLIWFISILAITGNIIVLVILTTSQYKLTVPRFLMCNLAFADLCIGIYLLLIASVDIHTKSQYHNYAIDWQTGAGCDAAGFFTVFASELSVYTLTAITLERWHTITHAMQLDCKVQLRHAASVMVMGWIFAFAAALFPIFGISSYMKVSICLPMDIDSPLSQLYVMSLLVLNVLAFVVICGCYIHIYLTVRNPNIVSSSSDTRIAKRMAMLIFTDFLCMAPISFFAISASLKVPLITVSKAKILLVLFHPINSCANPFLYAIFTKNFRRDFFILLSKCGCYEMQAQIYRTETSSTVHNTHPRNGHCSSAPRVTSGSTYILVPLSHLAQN
Nature of the experiment: cell-based or functional assay.

The target of the next experiment is T2, rat LH receptor (rat, UniProt P16235 27-700, limits assumed).
T2 construct: the form used in the assay is not described; also called rat luteinizing hormone receptor
T2 sequence (P16235 27-700 limits assumed): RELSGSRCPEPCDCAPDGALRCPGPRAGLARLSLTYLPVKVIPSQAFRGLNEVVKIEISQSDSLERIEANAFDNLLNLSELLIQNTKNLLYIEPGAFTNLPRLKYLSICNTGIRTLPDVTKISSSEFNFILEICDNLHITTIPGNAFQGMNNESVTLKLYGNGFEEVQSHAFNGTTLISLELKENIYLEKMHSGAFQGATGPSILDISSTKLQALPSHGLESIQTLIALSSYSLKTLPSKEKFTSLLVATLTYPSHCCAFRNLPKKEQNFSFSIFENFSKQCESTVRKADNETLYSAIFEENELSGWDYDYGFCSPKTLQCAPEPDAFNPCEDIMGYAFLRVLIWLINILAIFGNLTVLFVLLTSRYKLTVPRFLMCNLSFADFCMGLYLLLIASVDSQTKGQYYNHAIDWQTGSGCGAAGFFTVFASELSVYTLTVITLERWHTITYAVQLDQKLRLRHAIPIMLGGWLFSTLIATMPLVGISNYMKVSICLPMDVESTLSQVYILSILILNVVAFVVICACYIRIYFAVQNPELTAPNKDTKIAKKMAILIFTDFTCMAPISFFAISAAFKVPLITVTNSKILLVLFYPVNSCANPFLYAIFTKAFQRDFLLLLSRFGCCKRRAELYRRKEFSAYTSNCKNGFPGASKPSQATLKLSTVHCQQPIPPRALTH
Kind of experiment: not described; data not shown.

The target of a further experiment is T3, human LH receptor (human, UniProt P22888 27-699, limits assumed).
T3 construct: the form used in the assay is not described; also called human luteinizing hormone (receptor)
T3 sequence (P22888 27-699 R124G/N312S limits assumed): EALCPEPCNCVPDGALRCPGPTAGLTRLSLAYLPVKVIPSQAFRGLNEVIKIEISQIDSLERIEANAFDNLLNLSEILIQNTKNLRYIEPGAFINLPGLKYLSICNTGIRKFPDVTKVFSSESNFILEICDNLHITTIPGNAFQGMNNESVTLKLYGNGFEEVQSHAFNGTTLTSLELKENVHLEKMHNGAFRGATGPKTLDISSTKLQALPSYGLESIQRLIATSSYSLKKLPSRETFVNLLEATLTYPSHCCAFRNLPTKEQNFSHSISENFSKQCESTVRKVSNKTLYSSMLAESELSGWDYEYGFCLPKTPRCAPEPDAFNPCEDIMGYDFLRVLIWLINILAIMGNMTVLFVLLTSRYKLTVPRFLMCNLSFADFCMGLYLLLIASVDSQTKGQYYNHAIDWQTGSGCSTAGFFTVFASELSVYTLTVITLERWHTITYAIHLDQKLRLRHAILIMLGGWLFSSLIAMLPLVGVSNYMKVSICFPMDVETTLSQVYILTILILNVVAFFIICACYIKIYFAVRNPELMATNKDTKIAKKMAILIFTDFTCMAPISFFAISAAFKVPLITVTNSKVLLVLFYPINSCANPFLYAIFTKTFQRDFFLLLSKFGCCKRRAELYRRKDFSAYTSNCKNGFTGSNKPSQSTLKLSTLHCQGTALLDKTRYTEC
Kind of experiment: not described; data not shown.

B1: FSH analog TR-4402: alpha(E14R + Q20R + G73R) + betaE4R (ligand)
chain 1: not shown
chain 2: NSCRLTNITIAIEKEECRFCISINTTWCAGYCYTRDLVYKDPARPKIQKTCTFKELVYETVRVPGCAHHADSLYTYPVATQCHCGKCDSDSTDCTVRGLGPSYCSFGEMKE
In the case of B1, in the experiment with human FSH receptor, the “potency, total cAMP production in CHO-FSHR cells, compared to Follistim (wild type FSH)” value was 30 fold and the “potency, total cAMP production in KGN-FSHR cells, compared to wild type FSH” value was 30 fold. The binding result in the experiment with rat LH receptor was “binds”. Besides, in the experiment with human LH receptor, the binding result is reported as “no binding”.
